Reference: publication PMC11248248, “Dual protection by Bcp1 and Rkm1 ensures incorporation of uL14 into pre-60S ribosomal subunits” (The Journal of Cell Biology, 2024)

T1: Rkm1-His6 (S. cerevisiae, UniProt Q08961 1-583)
T1 construct: Rkm1, ribosomal lysine methyltransferase with SET domain, S. cerevisiae; also called recombinant Rkm1; source: E. coli BL21(DE3), purified (Ni-NTA, Superdex 200)
T1 sequence (looked up): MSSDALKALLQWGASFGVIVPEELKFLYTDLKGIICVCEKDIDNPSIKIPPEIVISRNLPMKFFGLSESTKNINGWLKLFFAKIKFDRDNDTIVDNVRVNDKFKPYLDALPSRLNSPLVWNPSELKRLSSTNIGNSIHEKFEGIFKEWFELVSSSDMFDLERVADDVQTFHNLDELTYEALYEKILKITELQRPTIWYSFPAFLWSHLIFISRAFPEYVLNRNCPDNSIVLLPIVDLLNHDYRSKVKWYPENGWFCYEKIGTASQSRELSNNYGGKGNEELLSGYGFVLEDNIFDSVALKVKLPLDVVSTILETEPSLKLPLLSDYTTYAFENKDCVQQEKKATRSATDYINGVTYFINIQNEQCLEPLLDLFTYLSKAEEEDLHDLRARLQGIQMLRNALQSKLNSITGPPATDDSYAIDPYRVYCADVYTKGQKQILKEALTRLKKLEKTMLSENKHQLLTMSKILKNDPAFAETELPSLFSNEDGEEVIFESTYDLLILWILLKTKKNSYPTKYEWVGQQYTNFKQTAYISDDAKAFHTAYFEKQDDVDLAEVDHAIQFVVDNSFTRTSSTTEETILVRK

T2: GST-Kap123 (S. cerevisiae, UniProt P40069 1-1113)
T2 construct: importin Kap123, S. cerevisiae; also called karyopherin; importin; source: recombinant, purified on glutathione beads; not shown: GST, N-terminal, kept
T2 sequence (looked up): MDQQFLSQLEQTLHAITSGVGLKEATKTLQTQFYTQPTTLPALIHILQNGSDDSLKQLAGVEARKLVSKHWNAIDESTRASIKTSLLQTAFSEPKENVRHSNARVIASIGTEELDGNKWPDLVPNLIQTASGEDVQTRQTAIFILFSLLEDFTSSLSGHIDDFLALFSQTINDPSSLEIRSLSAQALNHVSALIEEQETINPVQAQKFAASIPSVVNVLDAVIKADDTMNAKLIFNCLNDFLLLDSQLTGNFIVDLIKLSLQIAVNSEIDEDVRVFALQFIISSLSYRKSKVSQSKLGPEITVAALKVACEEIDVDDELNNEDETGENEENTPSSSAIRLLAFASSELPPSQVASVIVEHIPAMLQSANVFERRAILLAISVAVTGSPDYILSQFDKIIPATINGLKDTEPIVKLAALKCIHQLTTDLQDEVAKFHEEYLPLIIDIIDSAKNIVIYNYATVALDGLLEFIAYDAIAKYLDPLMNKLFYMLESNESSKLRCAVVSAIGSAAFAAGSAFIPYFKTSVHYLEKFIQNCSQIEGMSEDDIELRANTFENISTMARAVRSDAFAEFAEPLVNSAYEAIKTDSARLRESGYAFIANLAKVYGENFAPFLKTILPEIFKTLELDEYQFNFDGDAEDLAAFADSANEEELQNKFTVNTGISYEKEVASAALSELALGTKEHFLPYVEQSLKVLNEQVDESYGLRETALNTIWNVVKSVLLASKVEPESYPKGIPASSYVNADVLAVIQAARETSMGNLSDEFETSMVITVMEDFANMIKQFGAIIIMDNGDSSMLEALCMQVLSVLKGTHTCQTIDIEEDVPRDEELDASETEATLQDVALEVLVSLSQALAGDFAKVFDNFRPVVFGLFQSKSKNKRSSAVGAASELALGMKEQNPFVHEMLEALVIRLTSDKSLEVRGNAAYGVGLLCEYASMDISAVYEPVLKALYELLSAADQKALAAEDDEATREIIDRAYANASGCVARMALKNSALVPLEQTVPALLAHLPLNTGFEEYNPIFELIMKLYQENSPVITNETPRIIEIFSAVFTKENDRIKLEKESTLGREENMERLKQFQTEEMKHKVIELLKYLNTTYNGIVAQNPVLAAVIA

T3: GST-Kap121 (S. cerevisiae, UniProt P32337 1-1089)
T3 construct: importin Kap121 (Pse1), S. cerevisiae; also called karyopherin; importin; source: recombinant, purified on glutathione beads; not shown: GST, N-terminal, kept
T3 sequence (looked up): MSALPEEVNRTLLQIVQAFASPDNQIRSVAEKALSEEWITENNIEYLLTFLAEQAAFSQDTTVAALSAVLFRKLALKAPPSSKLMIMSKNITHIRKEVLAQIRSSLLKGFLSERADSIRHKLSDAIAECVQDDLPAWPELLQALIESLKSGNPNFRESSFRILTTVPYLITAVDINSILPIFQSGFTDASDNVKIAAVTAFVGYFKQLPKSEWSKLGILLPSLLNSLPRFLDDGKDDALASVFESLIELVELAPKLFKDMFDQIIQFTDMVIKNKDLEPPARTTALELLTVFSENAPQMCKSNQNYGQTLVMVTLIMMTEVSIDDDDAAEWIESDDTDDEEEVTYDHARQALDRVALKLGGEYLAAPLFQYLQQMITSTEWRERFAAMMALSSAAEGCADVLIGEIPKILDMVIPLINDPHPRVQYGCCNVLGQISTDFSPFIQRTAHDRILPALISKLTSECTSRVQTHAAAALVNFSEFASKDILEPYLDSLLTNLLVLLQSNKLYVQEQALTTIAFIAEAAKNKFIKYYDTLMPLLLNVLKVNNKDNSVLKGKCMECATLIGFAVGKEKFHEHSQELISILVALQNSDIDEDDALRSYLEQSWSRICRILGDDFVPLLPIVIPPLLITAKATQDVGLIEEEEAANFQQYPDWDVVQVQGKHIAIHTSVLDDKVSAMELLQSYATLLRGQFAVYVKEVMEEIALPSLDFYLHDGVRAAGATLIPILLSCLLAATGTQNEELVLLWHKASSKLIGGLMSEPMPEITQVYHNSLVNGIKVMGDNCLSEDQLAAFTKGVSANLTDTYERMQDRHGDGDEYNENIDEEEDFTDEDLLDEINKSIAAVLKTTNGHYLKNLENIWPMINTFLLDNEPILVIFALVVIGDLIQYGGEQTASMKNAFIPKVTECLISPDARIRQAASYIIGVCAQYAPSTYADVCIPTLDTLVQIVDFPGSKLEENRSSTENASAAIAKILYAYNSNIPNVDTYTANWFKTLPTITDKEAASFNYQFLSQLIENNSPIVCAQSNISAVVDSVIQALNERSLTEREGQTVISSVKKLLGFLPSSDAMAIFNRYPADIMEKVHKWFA

B1: Bcp1-His6 (natural protein, S. cerevisiae, UniProt Q06338 1-283, looked up)
chain: MVQAIKLNDLKNRKRKNVEEENGSDESEIDISSTDSENEEEQNGEEEIVNIDFDFFGGNPEVDFHALKNLLRQLFGPQESTRIQLSSLADLILGSPTTTIKTDGKESDPYCFLSFVDFKANHLSDYVKYLQKVDMRLSTFFKTMIDSGNKNCALVLSERLINMPPEVVPPLYKITLEDVATALGDDKHYDFYIIVTRKYEVNFDTDDDTDSGKRNKNKDERSKKRVKADEVDYFHEEDRFFEKYAKIHFESEAKKGVISSYMILDHEGLVKSIDELETEISTW
notes: Bcp1, S. cerevisiae; also called full-length Bcp1; recombinant Bcp1

Legend:
Details in all cases: both partners purified
Bcp1-His6 [1] = target: B1; test: pull-down; Bcp1-His6 in the supernatants of the methylation reactions (Fig. 6 A, lanes 7 and 8) purified on Ni-NTA beads; bound uL14 and its methylation by western blotting
Rkm1-His6 = target: T1, Rkm1-His6; test: SEC; HiLoad 16/600 Superdex 200; Bcp1, uL14 and Rkm1 mixed; ratio from band intensity in SDS-PAGE and molecular weight estimated from SEC
Bcp1-His6 [2] = target: B1; test: as above
GST-Kap123 = target: T2, GST-Kap123; test: pull-down; GST-Kap121 or GST-Kap123 on glutathione beads, incubated with recombinant proteins at 4°C for 1 h, three washes; Coomassie staining and western blotting
GST-Kap121 [3] = target: T3, GST-Kap121; test: pull-down; release test: GST-Kap in complex with cargo immobilised on glutathione beads, purified Bcp1 or bcp1ΔN added for another hour at 4°C; what is left on the beads or in the supernatant by western blotting
GST-Kap121 [4] = target: T3, GST-Kap121; test: pull-down; GST-Kap121 or GST-Kap123 on glutathione beads, incubated with recombinant proteins at 4°C for 1 h, three washes; Coomassie staining and western blotting
GST-Rkm1/uL14 complex = target: T4, GST-Rkm1/uL14 complex (S. cerevisiae, UniProt Q08961 1-583; P0CX41 1-137); test: pull-down; purified Bcp1 or bcp1∆N20 added to the GST-Rkm1/uL14 complex immobilised on glutathione beads, with or without 0.5 mM SAM, 30°C, 80 min; beads and supernatants analysed
T4 construct: Rkm1, S. cerevisiae; as the chain of m12; uL14 (Rpl23), S. cerevisiae; as the chain of m2; also called Rkm1/uL14 complex on glutathione beads; source: recombinant, purified with glutathione beads
T4 sequence (P0CX41 whole entry, one chain of several): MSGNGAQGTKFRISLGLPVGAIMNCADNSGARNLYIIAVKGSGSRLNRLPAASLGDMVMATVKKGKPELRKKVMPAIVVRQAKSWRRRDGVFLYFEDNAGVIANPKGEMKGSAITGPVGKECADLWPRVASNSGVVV

Row | binding result (GST-Kap123) | binding result (GST-Kap121 [4]) | binding result (GST-Rkm1/uL14 complex) | Binder | also measured
1 | – | – | – | methylated uL14 (natural protein, methylated at K106 and K110, uL14 (Rpl23), S. cerevisiae; Methylation stoichiometry of K106 and K110 ~98.6% by AspN digestion; also called uL14 methylated in vitro by Rkm1 with SAM; source: recombinant uL14 methylated on GST-Rkm1 beads with 0.5 mM SAM, 30°C, 80 min) not shown | binding result (Bcp1-His6 [1]): binds
2 | binds | – | – | uL14 (recombinant) (natural protein, ribosomal protein uL14 (Rpl23), S. cerevisiae, encoded by RPL23A and RPL23B; No tag is named for recombinant uL14; for the Bcp1/uL14 complex its bacterial pellet was lysed together with that of Bcp1-His6; also called Rpl23; source: E. coli BL21(DE3), purified) not shown | stoichiometry N (Rkm1-His6): ~1; stoichiometry N (Bcp1-His6 [2]): ~1; binding result (GST-Kap121 [3]): binds
3 | binds | binds | – | Rkm1/uL14 complex (complex, Rkm1, S. cerevisiae; uL14 (Rpl23), S. cerevisiae; as the chain of m2; also called uL14/Rkm1 complex; source: E. coli, recombinant, purified) chain 1: MSSDALKALLQWGASFGVIVPEELKFLYTDLKGIICVCEKDIDNPSIKIPPEIVISRNLPMKFFGLSESTKNINGWLKLFFAKIKFDRDNDTIVDNVRVNDKFKPYLDALPSRLNSPLVWNPSELKRLSSTNIGNSIHEKFEGIFKEWFELVSSSDMFDLERVADDVQTFHNLDELTYEALYEKILKITELQRPTIWYSFPAFLWSHLIFISRAFPEYVLNRNCPDNSIVLLPIVDLLNHDYRSKVKWYPENGWFCYEKIGTASQSRELSNNYGGKGNEELLSGYGFVLEDNIFDSVALKVKLPLDVVSTILETEPSLKLPLLSDYTTYAFENKDCVQQEKKATRSATDYINGVTYFINIQNEQCLEPLLDLFTYLSKAEEEDLHDLRARLQGIQMLRNALQSKLNSITGPPATDDSYAIDPYRVYCADVYTKGQKQILKEALTRLKKLEKTMLSENKHQLLTMSKILKNDPAFAETELPSLFSNEDGEEVIFESTYDLLILWILLKTKKNSYPTKYEWVGQQYTNFKQTAYISDDAKAFHTAYFEKQDDVDLAEVDHAIQFVVDNSFTRTSSTTEETILVRK chain 2: not shown | –
4 | – | binds | – | bcp1ΔN10 (domain or fragment, S. cerevisiae, UniProt Q06338 11-283, looked up, Bcp1, S. cerevisiae, truncated by 10 amino acids from the N terminus; also called bcp1(∆N10); bcp1∆N10; source: E. coli, purified) KNRKRKNVEEENGSDESEIDISSTDSENEEEQNGEEEIVNIDFDFFGGNPEVDFHALKNLLRQLFGPQESTRIQLSSLADLILGSPTTTIKTDGKESDPYCFLSFVDFKANHLSDYVKYLQKVDMRLSTFFKTMIDSGNKNCALVLSERLINMPPEVVPPLYKITLEDVATALGDDKHYDFYIIVTRKYEVNFDTDDDTDSGKRNKNKDERSKKRVKADEVDYFHEEDRFFEKYAKIHFESEAKKGVISSYMILDHEGLVKSIDELETEISTW | –
5 | – | binds | binds | B1 | –
6 | – | – | binds | bcp1ΔN20 (domain or fragment, S. cerevisiae, UniProt Q06338 21-283, looked up, Bcp1, S. cerevisiae, truncated by 20 amino acids from the N terminus; also called bcp1(∆N20); Bcp1(∆N20); source: E. coli, purified) ENGSDESEIDISSTDSENEEEQNGEEEIVNIDFDFFGGNPEVDFHALKNLLRQLFGPQESTRIQLSSLADLILGSPTTTIKTDGKESDPYCFLSFVDFKANHLSDYVKYLQKVDMRLSTFFKTMIDSGNKNCALVLSERLINMPPEVVPPLYKITLEDVATALGDDKHYDFYIIVTRKYEVNFDTDDDTDSGKRNKNKDERSKKRVKADEVDYFHEEDRFFEKYAKIHFESEAKKGVISSYMILDHEGLVKSIDELETEISTW | –
